The results in this text go back to patent US20100144025A1.

The target of assay [1] is HLA-A24 molecule (the product of HLA-A*2402 gene) (human).
Assay [2] concerns the target HLA-A2 molecule (the product of HLA-A*0201 gene) (human).
Assay [3] deals with HLA-A2 molecule (the product of HLA-A*0206 gene) (human).

B1: SEQ ID NO 12 (peptide)
peptide: ALSELPETL
modifications: not checked
With B1, the -log Kd was 5.5 -log Kd in assay [1] and 6.05 -log Kd in assay [2].

B2: SEQ ID NO 47 (peptide)
peptide: YVVIAILTV
modifications: not checked
Consider B2, for which, in assay [3], the -log Kd was 5.86 -log Kd.

B3: SEQ ID NO 8 (peptide)
peptide: GLNPTAIFL
modifications: not checked
Consider B3, for which, in assay [1], the -log Kd was 6.39 -log Kd.

B4: SEQ ID NO 50 (peptide)
peptide: QILEENVEV
modifications: not checked
B4: in assay [3], the -log Kd was 5.61 -log Kd.

B5: SEQ ID NO 10 (peptide)
peptide: AWLVHRQWF
modifications: not checked
With B5, the -log Kd in assay [1] is 8.39 -log Kd.

B6: SEQ ID NO 43 (peptide)
peptide: LALLAAFKV
modifications: not checked
On to B6, for which the -log Kd in assay [3] is 6.47 -log Kd.

B7: SEQ ID NO 49 (peptide)
peptide: RTLRVLNLV
modifications: not checked
Consider B7, for which the -log Kd in assay [3] is 5.97 -log Kd.

B8: SEQ ID NO 18 (peptide)
peptide: IQKETLVTF
modifications: not checked
Take B8: the -log Kd in assay [1] was 7.24 -log Kd.

B9: SEQ ID NO 48 (peptide)
peptide: SVIEKMEAL
modifications: not checked
As to B9, in assay [3], the -log Kd is 6.37 -log Kd.

B10: SEQ ID NO 1 (peptide)
peptide: WYAQIQPHW
modifications: not checked
As for B10, the -log Kd in assay [1] is 8.64 -log Kd.

B11: SEQ ID NO 16 (peptide)
peptide: KLMKITAEW
modifications: not checked
Turning to B11, in assay [1], the -log Kd was 7.21 -log Kd.

B12: SEQ ID NO 7 (peptide)
peptide: HWPKSHTLW
modifications: not checked
Regarding B12, in assay [1], the -log Kd is 8.66 -log Kd.

B13: SEQ ID NO 38 (peptide)
peptide: ALHQVFGAI
modifications: not checked
B13: in assay [2], the -log Kd is 6.77 -log Kd.

B14: SEQ ID NO 9 (peptide)
peptide: ELPETLETL
modifications: not checked
Take B14: the values for the -log Kd in assay [1] and in assay [2] were 7.01 -log Kd and 6.32 -log Kd, respectively.

B15: SEQ ID NO 5 (peptide)
peptide: PFPQSNAPI
modifications: not checked
Take B15: in assay [1], the -log Kd is 8.22 -log Kd.

B16: SEQ ID NO 36 (peptide)
peptide: FQPESPSKL
modifications: not checked
With B16, in assay [2], the -log Kd was 6.31 -log Kd.

B17: SEQ ID NO 34 (peptide)
peptide: SLRPQPTEL
modifications: not checked
Turning to B17, the -log Kd in assay [2] was 5.05 -log Kd.

B18: SEQ ID NO 23 (peptide)
peptide: AYNHALSEL
modifications: not checked
As to B18, the -log Kd in assay [1] was 7.68 -log Kd.

B19: SEQ ID NO 15 (peptide)
peptide: YMPSVIEKM
modifications: not checked
Regarding B19, the -log Kd in assay [1] was 7.17 -log Kd; in assay [2] it was 6.58 -log Kd.

B20: SEQ ID NO 31 (peptide)
peptide: RLITVNPIV
modifications: not checked
Take B20: in assay [2], the -log Kd was 5.64 -log Kd.

B21: SEQ ID NO 35 (peptide)
peptide: FLIDGPETA
modifications: not checked
On to B21, for which, in assay [2], the -log Kd was 6.05 -log Kd.

B22: SEQ ID NO 41 (peptide)
peptide: LVISGLFPV
modifications: not checked
In the case of B22, the -log Kd in assay [3] is 6.61 -log Kd.

B23: SEQ ID NO 27 (peptide)
peptide: IVLEHGSCV
modifications: not checked
Regarding B23, the -log Kd in assay [3] was 6.02 -log Kd; in assay [2] it was 5.74 -log Kd.

B24: SEQ ID NO 30 (peptide)
peptide: NLVRLQSGV
modifications: not checked
Consider B24, for which the -log Kd in assay [2] was 4.7 -log Kd.

B25: SEQ ID NO 29 (peptide)
peptide: PLNEAIMAV
modifications: not checked
As to B25, in assay [2], the -log Kd is 6.49 -log Kd.

B26: SEQ ID NO 45 (peptide)
peptide: HVLGRLITV
modifications: not checked
Turning to B26, in assay [3], the -log Kd is 6.25 -log Kd.

B27: SEQ ID NO 33 (peptide)
peptide: ILIRTGLLV
modifications: not checked
As to B27, the -log Kd in assay [2] is 6.53 -log Kd.

B28: SEQ ID NO 11 (peptide)
peptide: TLYAVATTF
modifications: not checked
As to B28, the -log Kd in assay [1] is 7.58 -log Kd.

B29: SEQ ID NO 20 (peptide)
peptide: GFLNEDHWF
modifications: not checked
In the case of B29, the -log Kd in assay [1] was 6.76 -log Kd.

B30: SEQ ID NO 22 (peptide)
peptide: PMSTYGWNL
modifications: not checked
For the molecule B30, the -log Kd in assay [1] is 7.62 -log Kd.

B31: SEQ ID NO 25 (peptide)
peptide: DWIPLALTI
modifications: not checked
Take B31: the -log Kd in assay [1] was 8 -log Kd.

B32: SEQ ID NO 2 (peptide)
peptide: AFSGVSWTM
modifications: not checked
In the case of B32, the -log Kd in assay [1] was 8.19 -log Kd.

B33: SEQ ID NO 21 (peptide)
peptide: ALVAFLRFL
modifications: not checked
Regarding B33, in assay [1], the -log Kd is 5.68 -log Kd.

B34: SEQ ID NO 19 (peptide)
peptide: ALHQVFGAI
modifications: not checked
As to B34, in assay [1], the -log Kd is 6.05 -log Kd.
